Data on four molecules can be found in publication PMC11641334, “The Effect of CBM1 and Linker on the Oxidase, Peroxidase and Monooxygenase Activities of AA9 LPMOs: Insight into Their Correlation with the Nature of Reductants and Crystallinity of Celluloses” (International Journal of Molecular Sciences, 2024).

For one series, the target named is T1, NcLPMO9C∆CBM (Neurospora crassa, UniProt Q7SHI8).
T1 construct: gene gh61-3; Pichia pastoris X33, copper-saturated
As to the kind of experiment: peroxidase assay, absorbance at […] nm (coerulignone), Michaelis-Menten fit. It is filed as biochemical. As to conditions: 5 mM H2O2 co-substrate; copper-saturated enzyme 1 µM; 100 mM sodium phosphate pH 6.0; 37 °C; read-out: 2,6-DMP / Km.

Substrate in series [1]: COc1cccc(OC)c1O
As to the kind of experiment: purified protein. It is filed as biochemical, Neurospora crassa. The note with it: 5 mM H2O2 co-substrate, copper-saturated enzyme 1 µM, 100 mM sodium phosphate pH 6.0, 37 °C.

Substrate in series [2]: COc1cccc(OC)c1O
Put plainly: purified protein. The format is biochemical, Aspergillus oryzae. As to conditions: 5 mM H2O2 co-substrate, copper-saturated enzyme 1 µM, 100 mM sodium phosphate pH 6.0, 37 °C.

For orientation: kcat means the number of substrate molecules converted per active site and unit of time at saturation.

Regarding `COc1cccc(OC)c1O` [2,6-DMP], on NcLPMO9C∆CBM, the Km turned out to be 1280 ± 120 µM.

B1: NcLPMO9C (Neurospora crassa OR74A) (protein)
chain: HTIFQKVSVNGADQGQLKGIRAPANNNPVTDVMSSDIICNAVTMKDSNVLTVPAGAKVGHFWGHEIGGAAGPNDADNPIAASHKGPIMVYLAKVDNAATTGTSGLKWFKVAEAGLSNGKWAVDDLIANNGWSYFDMPTCIAPGQYLMRAELIALHNAGSQAGAQFYIGCAQINVTGGGSASPSNTVSFPGAYSASDPGILINIYGGSGKTDNGGKPYQIPGPALFTCPAGGSGGSSPAPATTASTPKPTSASAPKPVSTTASTPKPTNGSGSGTGAAHSTKCGGSKPAATTKASNPQPTNGGNSAVRAAALYGQCGGKGWTGPTSCASGTCKFSNDWYSQCLP
notes: wild type with 79-residue linker and CBM1, C4-oxidizing; Pichia pastoris X33, N-glycosylated, Ni-NTA, copper-saturated
On to B1, for which, in the series “purified protein [1]”, the Km was 940 ± 90 µM and the kcat was determined as 0.58 ± 0.02 s⁻¹.

B2: AoLPMO9A (Aspergillus oryzae RIB40) (protein)
chain: HGYVSGVVIDGQYYGGYLVDKYAYSDNAPDTIGWTTSATDLGFVDGTGYQSPDIICHKDGAPGALTAEVAAGGKIELQWTEWPESHHGPVLNYLAPCGGECSAVDKTTLEFFKIEAKGLIDGTTPPGQWATDDLISNNNSYTVTIPTSIQEGNYVLRHEIIGLHSAGQKDGAQNYPQCINIKVTGGGDATPAGTAGEALYKDTDAGILFDIYSDLSGGYPIPGPEVFSA
notes: wild type, C1/C4-oxidizing, no CBM1; Pichia pastoris X33, N-glycosylated, Ni-NTA, copper-saturated
In the case of B2, in “purified protein [2]”, the Km came out at 1760 ± 310 µM and the kcat came to 1.48 ± 0.09 s⁻¹.

B3: AoLPMO9B (Aspergillus oryzae RIB40) (protein)
chain: HGHVSNIVINGVYYEGFDINSFPYMGESAPTVAAWTTPNTGNGPLAPDDYSSPDIICHQNATAGKGYVEVNAGDRISLQWTPWPESHHGPVVDYLARCEPNCASVDKTSLEFFKIDGVGIVDGSSVPGVWGDDQLIQNNNTWLVEIPKSIAPGYYVLRHELIALHSAGTEGGAQNYPSCFNLKVNGEGTDKPAGVVGTELYTPTGDGIIFNIYQTVSEYPVPGPTLYSGAATGVTQAASTVTSTGTALTVGAAATTPASGSGASSSAAPSSSAAATPSSSAAPSSSAAARR
notes: as for B2
On to B3, for which, in “purified protein [2]”, the Km came out at 1550 ± 140 µM and the kcat was 1.33 ± 0.04 s⁻¹.
